According to the Human Domainome abundance scans (Beltran et al. 2025):
± gives the uncertainty stated by the source.

B1: Tumor protein 63, residues 545 to 610; numbered along this chain, Q9H3D4 (parent)
chain: TDCSIVSFLARLGCSSCLDYFTTQGLTTIYQIEHYSMDDLASLKIPEQFRHAIWKGILDHRQLHEF
B2: TGF-beta-activated kinase 1 and MAP3K7-binding protein 3, residues 12 to 50; numbered along this chain, Q8N5C8 (parent)
chain: VLHDLRQRFPEIPEGVVSQCMLQNNNNLEACCRALSQES

Variants of: B1
Assay: abundance fitness (aPCA) (normalised: wild type 0, dead -1); higher = more abundant; growth selection in yeast, the domain comes from the species named
Conditions: Homo sapiens

Abundance fitness, by site and new letter:
V6: A 0.028 ± 0.025; D -0.013 ± 0.035; E -0.067 ± 0.045; C -0.111 ± 0.035
C3: G -0.069 ± 0.018; A -0.098 ± 0.021; Q -0.031 ± 0.026; W -0.082 ± 0.02; V -0.15 ± 0.021; T -0.015 ± 0.021; L -0.033 ± 0.02; R -0.051 ± 0.018; S -0.011 ± 0.022; M -0.005 ± 0.025; N -0.021 ± 0.033; K -0.075 ± 0.031; I -0.029 ± 0.031; H -0.08 ± 0.044; F -0.018 ± 0.063; D -0.043 ± 0.029; Y 0 ± 0.027
T1: H -0.361 ± 0.15; Q -0.033 ± 0.065; C -0.063 ± 0.033; N -0.04 ± 0.064; M -0.041 ± 0.043; G -0.027 ± 0.029; P -0.458 ± 0.16; D -0.039 ± 0.038; Y -0.074 ± 0.046; I -0.006 ± 0.041; W -0.047 ± 0.05; S -0.047 ± 0.027; R -0.199 ± 0.026; E -0.021 ± 0.054; F -0.034 ± 0.13; V -0.058 ± 0.042; K -0.122 ± 0.054; A -0.064 ± 0.044
D2: S -0.101 ± 0.025; F -0.184 ± 0.088; C -0.19 ± 0.042; H -0.17 ± 0.062; N -0.053 ± 0.03; L -0.338 ± 0.026; G -0.11 ± 0.022; T -0.185 ± 0.041; E -0.079 ± 0.028; P -0.132 ± 0.033; V -0.22 ± 0.024; A -0.147 ± 0.025; Y -0.182 ± 0.052; W -0.275 ± 0.039; R -0.202 ± 0.037; K -0.099 ± 0.037; Q -0.127 ± 0.047
S4: C -0.16 ± 0.03; Y -0.164 ± 0.034; G -0.104 ± 0.019; K -0.075 ± 0.029; T -0.04 ± 0.019; M -0.063 ± 0.021; P -0.17 ± 0.026; H -0.114 ± 0.029; F -0.158 ± 0.026; E -0.066 ± 0.026; V -0.632 ± 0.027; W -0.224 ± 0.028; Q -0.078 ± 0.03; L -0.038 ± 0.017; D -0.05 ± 0.027
I5: Q -0.973 ± 0.081; L -0.005 ± 0.022; K -0.921 ± 0.067; M -0.021 ± 0.027; F -0.362 ± 0.029; V -0.096 ± 0.02; G -0.878 ± 0.052; H -0.647 ± 0.066; T -0.479 ± 0.025; Y -0.971 ± 0.093; D -0.997 ± 0.1; E -0.976 ± 0.071; P -1.04 ± 0.085; R -1.01 ± 0.054; N -0.915 ± 0.089; S -0.856 ± 0.036

Variants of: B2
Assay: as above
Conditions: Homo sapiens

Abundance fitness, by site and new letter:
S39: E -0.104 ± 0.14; A -0.255 ± 0.068; F -0.213 ± 0.14; C -0.083 ± 0.07; L -0.045 ± 0.067; P -0.041 ± 0.064; Y -0.002 ± 0.06; M -0.077 ± 0.069; T 0.249 ± 0.12; K 0.052 ± 0.067; W -0.137 ± 0.072; G 0.001 ± 0.057; Q 0.039 ± 0.065; R 0.121 ± 0.05
E38: K 0.014 ± 0.046; R 0.1 ± 0.047; F 0.109 ± 0.1; L 0.14 ± 0.065; Y 0.093 ± 0.15; G -0.069 ± 0.036; D -0.045 ± 0.078; Q 0.145 ± 0.055; C 0.058 ± 0.068; P -0.029 ± 0.057; V -0.073 ± 0.042; W 0.264 ± 0.04; H 0.11 ± 0.054; T -0.118 ± 0.058; M 0.224 ± 0.061; S -0.046 ± 0.044
N27: R -0.607 ± 0.054; Q -0.398 ± 0.12; A -0.643 ± 0.079; S -0.478 ± 0.09; K -0.651 ± 0.11; P -0.856 ± 0.18; L -1.12 ± 0.14; C -0.831 ± 0.26; V -0.764 ± 0.08; W -0.835 ± 0.23; G -0.78 ± 0.073; T -1.01 ± 0.22; H -0.605 ± 0.26
R33: Y -0.459 ± 0.12; E -0.056 ± 0.058; F -0.271 ± 0.067; K -0.023 ± 0.058; P -0.731 ± 0.089; V -0.115 ± 0.051; D -0.239 ± 0.1; N -0.315 ± 0.13; Q -0.017 ± 0.051; S -0.174 ± 0.045; W -0.259 ± 0.053; T -0.127 ± 0.056; H -0.137 ± 0.064; A 0.04 ± 0.045; G -0.454 ± 0.048; C -0.451 ± 0.093
N26: V -0.816 ± 0.088; E -0.475 ± 0.062; D -0.435 ± 0.12; C -0.365 ± 0.092; R -0.746 ± 0.057; A -0.498 ± 0.049; G -0.144 ± 0.04; F 0.164 ± 0.25; S -0.289 ± 0.053; K -0.799 ± 0.2; H -0.316 ± 0.12; W -0.808 ± 0.15; M -0.317 ± 0.088; P -1.32 ± 0.45; L -0.685 ± 0.097
L35: E -0.504 ± 0.13; T -0.603 ± 0.089; F -0.697 ± 0.17; H -0.469 ± 0.12; V -0.924 ± 0.1; K -0.808 ± 0.13; Q -0.629 ± 0.25; R -0.811 ± 0.071; P -0.488 ± 0.081; M -0.879 ± 0.15; C -0.6 ± 0.25; W -0.819 ± 0.089; A -0.793 ± 0.058; S -0.745 ± 0.069; D -0.784 ± 0.41
A34: E -0.056 ± 0.041; D -0.178 ± 0.11; K -0.353 ± 0.054; V -0.135 ± 0.046; I -0.04 ± 0.13; C -0.373 ± 0.13; W -0.398 ± 0.047; R -0.49 ± 0.046; T -0.297 ± 0.08; M -0.168 ± 0.051; N -0.819 ± 0.41; G -0.73 ± 0.057; L -0.413 ± 0.05; H -0.117 ± 0.09; S -0.342 ± 0.055; Q 0.028 ± 0.063; Y -0.328 ± 0.35
L28: S -0.629 ± 0.09; Q -0.527 ± 0.1; C -0.587 ± 0.37; V -0.221 ± 0.043; E -0.471 ± 0.1; G -0.605 ± 0.048; P -0.313 ± 0.085; M -0.262 ± 0.076; R -0.437 ± 0.047; T -0.684 ± 0.2; W 0.007 ± 0.042; A -0.484 ± 0.05; H -0.285 ± 0.097; D -0.829 ± 0.31
E29: L -0.201 ± 0.2; V -0.895 ± 0.48
Q37: G 0.009 ± 0.035; K 0.107 ± 0.053; V -0.122 ± 0.038; P -0.537 ± 0.063; Y -0.345 ± 0.091; C -0.129 ± 0.071; S -0.014 ± 0.041; F -0.384 ± 0.072; M 0.043 ± 0.045; T -0.05 ± 0.047; W -0.372 ± 0.048; E 0.102 ± 0.035; A 0.084 ± 0.038; D -0.042 ± 0.066; R -0.003 ± 0.034; H -0.162 ± 0.073; N 0.151 ± 0.1; L 0.041 ± 0.039; I -0.107 ± 0.057
L22: T 0.026 ± 0.054; V 0.012 ± 0.058; Y -0.213 ± 0.1; W -0.292 ± 0.045
N24: P -0.989 ± 0.11; C -0.351 ± 0.054; K -0.843 ± 0.23; W -0.638 ± 0.055; T -0.871 ± 0.093; V -0.894 ± 0.073; M -0.679 ± 0.096; E -0.329 ± 0.062; G -0.878 ± 0.059; L -0.73 ± 0.07; A -0.747 ± 0.061; S -0.848 ± 0.09; Q -0.623 ± 0.12; R -1.08 ± 0.086; H 0.178 ± 0.077
S36: C -0.315 ± 0.099; D -0.018 ± 0.087; W -0.571 ± 0.08; H -0.314 ± 0.078; R -0.031 ± 0.042; L -0.186 ± 0.044; I -0.108 ± 0.11; Y -0.489 ± 0.1; A 0.08 ± 0.042; K -0.014 ± 0.062; V -0.365 ± 0.045; G -0.194 ± 0.042; M -0.095 ± 0.071; E 0.166 ± 0.046
Q23: S -0.206 ± 0.052; G -0.722 ± 0.058; A 0.107 ± 0.041; D 0.271 ± 0.083; R -0.06 ± 0.04; T -0.275 ± 0.077; N -0.046 ± 0.1; M -0.105 ± 0.059; I -0.649 ± 0.24; K -0.189 ± 0.1; P -0.787 ± 0.1; V -0.167 ± 0.043; L -0.108 ± 0.05; H 0.168 ± 0.14; E 0.215 ± 0.048
C31: S -0.545 ± 0.068; A -0.551 ± 0.072; Q -0.786 ± 0.24; W -0.965 ± 0.21; P -0.64 ± 0.13; I -0.718 ± 0.27; M -0.732 ± 0.3; K -0.513 ± 0.11; L -0.914 ± 0.17; T -0.219 ± 0.061; V -0.495 ± 0.065; D 0.122 ± 0.26; E -0.467 ± 0.076; G -0.555 ± 0.051; Y -0.895 ± 0.48; R -0.79 ± 0.072
A30: K -0.214 ± 0.072; T -0.568 ± 0.083; E -0.081 ± 0.045; N -0.174 ± 0.25; C -0.684 ± 0.25; G -0.599 ± 0.047; S -0.402 ± 0.075; V -0.55 ± 0.065; P -0.716 ± 0.14; I -0.838 ± 0.18; W -0.794 ± 0.1; H -0.248 ± 0.17; Q -0.178 ± 0.07; M -0.178 ± 0.054; R -0.348 ± 0.043
N25: S -0.365 ± 0.051; Q -0.306 ± 0.075; V -0.904 ± 0.095; P -0.615 ± 0.15; D -0.015 ± 0.082; C -0.5 ± 0.099; G -0.108 ± 0.038; A -0.425 ± 0.054; M -0.548 ± 0.086; R -0.39 ± 0.045; T -0.788 ± 0.091; W -0.819 ± 0.098
C32: N 0.023 ± 0.15; F -0.579 ± 0.17; S -0.226 ± 0.046; D -0.484 ± 0.069; A -0.21 ± 0.045; E -0.176 ± 0.057; H -0.171 ± 0.15; L -0.291 ± 0.071; R -0.589 ± 0.06; P -0.664 ± 0.093; Y -0.246 ± 0.064; Q -0.368 ± 0.095; G -0.575 ± 0.053; M -0.076 ± 0.048; V 0.176 ± 0.041
